Data from patent US20260265354A1 (JIANGSU MABWELL HEALTH PHARMACEUTICAL R AND D, published 2026).

Key:
Nectin-like-4 = molecular target: T1, Nectin-like-4 (UniProt Q8NFZ8 21-324, limits assumed); test: ELISA, coated antigen
T1 construct: Bought recombinant protein; also called CADM4; IgSF4C
T1 sequence (looked up): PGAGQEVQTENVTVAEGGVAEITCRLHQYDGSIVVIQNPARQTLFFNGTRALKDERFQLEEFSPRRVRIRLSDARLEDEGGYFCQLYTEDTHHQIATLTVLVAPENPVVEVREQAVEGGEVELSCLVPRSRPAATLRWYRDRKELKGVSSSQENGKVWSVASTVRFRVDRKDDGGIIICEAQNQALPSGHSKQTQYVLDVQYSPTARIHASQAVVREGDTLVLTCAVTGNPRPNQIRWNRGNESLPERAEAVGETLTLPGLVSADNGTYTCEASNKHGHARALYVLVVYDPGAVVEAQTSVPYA

Nectin-1 = molecular target: T2, Nectin-1 (UniProt Q15223 31-334, limits assumed); test: ELISA, coated antigen
T2 construct: Bought recombinant protein; also called CD111; PVRL-1
T2 sequence (looked up): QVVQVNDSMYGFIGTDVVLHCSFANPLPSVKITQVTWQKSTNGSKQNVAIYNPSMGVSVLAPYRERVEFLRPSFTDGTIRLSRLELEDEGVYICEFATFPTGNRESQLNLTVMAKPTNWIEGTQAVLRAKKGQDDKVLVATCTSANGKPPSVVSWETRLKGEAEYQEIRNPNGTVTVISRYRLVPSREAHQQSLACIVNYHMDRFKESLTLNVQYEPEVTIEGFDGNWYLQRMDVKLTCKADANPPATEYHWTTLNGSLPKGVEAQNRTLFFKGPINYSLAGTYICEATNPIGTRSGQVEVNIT

Nectin-2 [1] = molecular target: T3, Nectin-2 (UniProt Q92692 32-360, limits assumed); test: ELISA, coated antigen
T3 construct: Bought recombinant protein; also called CD112; PVRL-2
T3 sequence (looked up): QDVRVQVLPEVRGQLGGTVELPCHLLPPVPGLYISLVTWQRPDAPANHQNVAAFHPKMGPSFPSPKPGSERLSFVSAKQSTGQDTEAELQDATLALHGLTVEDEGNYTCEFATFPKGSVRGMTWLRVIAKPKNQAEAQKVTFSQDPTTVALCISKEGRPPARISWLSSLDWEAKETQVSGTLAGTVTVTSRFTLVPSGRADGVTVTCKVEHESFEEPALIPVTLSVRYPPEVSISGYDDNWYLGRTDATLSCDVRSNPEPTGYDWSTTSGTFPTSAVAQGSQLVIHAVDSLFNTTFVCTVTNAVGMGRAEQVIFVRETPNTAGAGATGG

Nectin-3 = molecular target: T4, Nectin-3 (UniProt Q9NQS3 58-404, limits assumed); test: ELISA, coated antigen
T4 construct: Bought recombinant protein; also called CD113; PVRL-3
T4 sequence (Q9NQS3 58-404 limits assumed): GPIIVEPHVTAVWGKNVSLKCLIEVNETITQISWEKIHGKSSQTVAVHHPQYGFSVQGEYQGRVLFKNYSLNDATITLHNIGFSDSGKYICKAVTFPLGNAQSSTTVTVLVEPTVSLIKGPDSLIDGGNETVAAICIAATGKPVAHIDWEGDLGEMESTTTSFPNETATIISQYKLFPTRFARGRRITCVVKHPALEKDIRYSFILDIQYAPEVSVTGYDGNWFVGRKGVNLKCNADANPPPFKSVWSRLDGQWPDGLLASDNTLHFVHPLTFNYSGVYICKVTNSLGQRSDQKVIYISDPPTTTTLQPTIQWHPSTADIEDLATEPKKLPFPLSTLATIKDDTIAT

Nectin-like-1 = molecular target: T5, Nectin-like-1 (UniProt Q8N126 25-330, limits assumed); test: ELISA, coated antigen
T5 construct: Bought recombinant protein; also called CADM3; IgSF4B
T5 sequence (looked up): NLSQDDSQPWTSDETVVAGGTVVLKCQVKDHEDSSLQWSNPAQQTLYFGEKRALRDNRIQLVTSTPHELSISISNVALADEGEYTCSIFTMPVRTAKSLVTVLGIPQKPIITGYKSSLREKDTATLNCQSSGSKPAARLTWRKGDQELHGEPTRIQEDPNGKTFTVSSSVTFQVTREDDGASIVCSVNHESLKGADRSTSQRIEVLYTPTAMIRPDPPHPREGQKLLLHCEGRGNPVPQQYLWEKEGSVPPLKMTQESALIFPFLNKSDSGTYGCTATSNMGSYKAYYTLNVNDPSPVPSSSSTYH

Nectin-like-2 = molecular target: T6, Nectin-like-2 (UniProt Q9BY67 45-374, limits assumed); test: ELISA, coated antigen, antibody at 10000 ng/ml
T6 construct: Bought recombinant protein; also called CADM1; IgSF4
T6 sequence (looked up): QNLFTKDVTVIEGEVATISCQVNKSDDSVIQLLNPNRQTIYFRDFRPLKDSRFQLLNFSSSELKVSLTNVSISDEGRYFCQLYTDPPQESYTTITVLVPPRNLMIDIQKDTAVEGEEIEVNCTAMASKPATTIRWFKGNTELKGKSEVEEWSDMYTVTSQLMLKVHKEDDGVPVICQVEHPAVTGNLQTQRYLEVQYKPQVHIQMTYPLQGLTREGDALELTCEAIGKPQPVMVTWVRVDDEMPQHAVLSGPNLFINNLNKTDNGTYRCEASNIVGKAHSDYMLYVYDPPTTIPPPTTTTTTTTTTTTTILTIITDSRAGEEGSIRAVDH
Procedure: (§1) Coating: Nectin-1, Nectin-2, Nectin-3, Nectin-4, Nectin-like-1, Nectin-like-2, Nectin-like-3, Nectin-like-4, and Nectin-like-5 were diluted to 5 μg/ml in coating buffer (carbonate buffer, pH 9.6) respectively. A 96-well plate was coat with 100 μl per well and incubated overnight at 2-8° C.;
(§2) Sample loading: The plate was taken out, patted dry, and washed twice with 200 μl/well of PBST, then patted dry. The Nectin-4 antibodies prepared in Example 1 (antibody MM11, antibody R012, and antibody R036) were diluted with 1% BSA/PBST to concentrations of 10 μg/ml, 1 μg/ml, 100 ng/ml, and 10 ng/ml, respectively. 1% BSA/PBST solution for dilution was set as a blank control. 100 μl per well was added to the 96-well plate, and incubated at room temperature for 2 hours;
(§3) Reaction termination and plate reading: 100 μl/well of 1 mol/L H3PO4 was added to terminate the reaction and the plated was read. The absorbances of wells in the plate at 450 nm with 650 nm as reference wavelength were read and recorded as OD_{450 nm-650 nm}.

Nectin-like-5 = molecular target: T7, Nectin-like-5 (UniProt P15151 21-343); test: ELISA, coated antigen, antibody at 10000 ng/ml
T7 construct: Bought recombinant protein; also called CD155; PVR
T7 sequence (looked up): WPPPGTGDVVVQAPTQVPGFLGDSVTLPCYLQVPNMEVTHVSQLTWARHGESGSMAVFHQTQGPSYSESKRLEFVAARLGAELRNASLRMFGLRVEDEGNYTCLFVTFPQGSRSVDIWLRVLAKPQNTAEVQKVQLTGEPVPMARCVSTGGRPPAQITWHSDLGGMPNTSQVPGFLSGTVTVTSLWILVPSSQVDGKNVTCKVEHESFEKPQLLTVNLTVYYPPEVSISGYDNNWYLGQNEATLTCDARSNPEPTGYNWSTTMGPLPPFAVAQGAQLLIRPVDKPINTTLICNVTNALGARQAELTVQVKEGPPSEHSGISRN
Procedure: as §1, §2, §3

Nectin-2 [2] = molecular target: T3, Nectin-2; test: ELISA, coated antigen, antibody at 10000 ng/ml
Procedure: as §1, §2, §3

Binder	binding result (Nectin-like-4)	binding result (Nectin-1)	binding result (Nectin-2 [1])	binding result (Nectin-3)	binding result (Nectin-like-1)	OD detection value (Nectin-like-2)	OD detection value (Nectin-like-5)	OD detection value (Nectin-2 [2])
Antibody MM11 (antibody, mouse IgG1, kappa, V domains shown, Mouse monoclonal antibody from hybridoma; also called Nectin-4 mouse monoclonal antibody MM11; mouse antibody MM11) VH: DVQLQESGPGLVKPSQSLSLTCSVTGYSITSNFYWNWIRQFPGNRLEWMGYISYDGSNNYNPSLKNRISISRDTSKNQFFLKLNSVTTEDTATYYCVRADYWGQGTLVTVSA VL: DTVMTQTPLSLPVSLGDQASISCRSSQSLESSDGHAYLNWYLQKPGQSPQLLIYRVSNRFSGVLHRFSGSGSGTDFTLKISRVEAEDLGVYFCLQFTHVPFTFGSGTKLEIKR	no binding (tested: 10000 ng/ml)	no binding (tested: 10000 ng/ml)	no binding (tested: 10000 ng/ml)	no binding (tested: 10000 ng/ml)	no binding (tested: 10000 ng/ml)	0.005 OD450 nm-650 nm	0.008 OD450 nm-650 nm	0.017 OD450 nm-650 nm
Antibody R012 (antibody, V domains shown, Rabbit monoclonal antibody from phage display; also called Nectin-4 rabbit monoclonal antibody R012; rabbit antibody R012) VH: SKSVEESGGRLVTPGTPLTLTCTVSGFSLSTYAMSWVRQAPGKGLEYIGIISGRGTTYYASWLKGRFTISKTSTTVDLKITSPTTEDTATYFCARDAGISDVYTGYFNLWGQGTLVTVSS VL: QPVLAQLPSASAALGASAKLTCTLSSAHRTYTIAWYQQQQGEAPRYLMMLKSDGSYTKGTGVPDRFSGSSSGADRYLIISSVQAADEADYYCGADDSGGYVFGGGTQLTVTG	no binding (tested: 10000 ng/ml)	no binding (tested: 10000 ng/ml)	no binding (tested: 10000 ng/ml)	no binding (tested: 10000 ng/ml)	no binding (tested: 10000 ng/ml)	0.009 OD450 nm-650 nm	0.008 OD450 nm-650 nm	0.008 OD450 nm-650 nm
Antibody R036 (antibody, V domains shown, Rabbit monoclonal antibody from phage display; also called Nectin-4 rabbit monoclonal antibody R036; rabbit antibody R036) VH: SQSVEESGGRLVTPGTPLTLTCTVSGFSLSSYAMSWVRQAPGKGLEYIGIIGGRGTTYYAIWAKGRFTISKTSTTVDLKITSPTTEDTATYFCARDAGTTYVGTTYVATGYFNLWGQGTLVTVSS VL: QPVLTQPPSASAALGASAKLTCTLSSAHKTYTIAWYQQQQGEAPRYLMILKSDGSYTRGTGVPDRFSGSSSGADRYLIISSVQADDEADYYCGADDSGGYVFGGGTQLTVTG	no binding (tested: 10000 ng/ml)	no binding (tested: 10000 ng/ml)	no binding (tested: 10000 ng/ml)	no binding (tested: 10000 ng/ml)	no binding (tested: 10000 ng/ml)	0.008 OD450 nm-650 nm	0.009 OD450 nm-650 nm	0.007 OD450 nm-650 nm
